Reference: patent US6399759B1, “Ant proteases and methods of inhibition” (University of Georgia Research Foundation, Inc., priority 1999, dated 2002)

B1: Soy Bean Trypsin Inhibitor I-S: soybean trypsin inhibitor Type I-S from Sigma (protein)
chain: DFVLDNEGNPLENGGTYYILSDITAFGGIRAAPTGNERCPLTVVQSRNELDKGIGTIISSPYRIRFIAEGHPLSLKFDSFAVIMLCVGIPTEWSVVEDLPEGPAVKIGENKDAMDGWFRLERVSDDEFNNYKLVFCPQQAEDDKCGDIGISIDHDDGTRRLVVSKNKPLVVQFQKLDKESL
B2: Lima Bean Trypsin Inhibitor: lima bean trypsin inhibitor from Sigma (protein)
chain: SGHHEHSTDXPSXSSKPCCXHCACTKSIPPQCRCTDLRLDSCHSACKSCICTLSIPAQCVCXXIXDFCYEPCKSSHSDDDNNN
modifications: not fully specified
B3: Eglin C: naturally occurring protease inhibitor obtained from Ciba Geigy (protein)
chain: TEFGSELKSFPEVVGKTVDQAREYFTLHYPQYDVYFLPEGSPVTLDLRYNRVRVFYNPGTNVVNHVPHVG

Assays:
Experiment in all cases: Inhibition of amidolytic activity by naturally occurring protease inhibitors
Details in all cases: 10 minutes incubation at 25° C. in 50 mM Tris-HCl, 100 mM NaCl, pH 7.4
Soli C1 = molecular target: T1, Soli C1 (Solenopsis invicta, UniProt Q7SIG2); type: biochemical
T1 construct: Fourth instar larvae were extracted in a 1:10 (weight/volume) ratio of 20 mM Tris-HCl pH 7.4; from tissue; host or cells: whole Solenopsis invicta 4th instar larvae (buffer extract, acetone precipitation, Q Sepharose peak III, Mono Q, Superdex 75)
Description: (§1) Enzyme Assay—Generally, the amidolytic activities of each proteinase were measured with the substrates MeOSuc-Ala-Ala-Pro-Val-pNA (SEQ ID NO:8) and N-Suc-Ala-Ala-Pro-Phe-pNA (SEQ ID NO:7) in 0.05 M Tris-HCl and 100 mM NaCl pH 7.4 (assay buffer). Release of the pNA group was assayed by monitoring the optical density of the test solution at […]. Enzyme inhibition assays by protein inhibitors were conducted in the same assay buffer using an inhibitor concentration ranging from 0.02-50 nM with a 10 minute preincubation time and with the final enzyme concentration being 1.0 nM. All kinetic studies with substrates and inhibitors were performed at the optimum pH of the individual proteinases, utilizing the following buffers: 150 mM NaCl, 50 mM Tris-HCl pH 8.0 (E1); 150 mM NaCl, 50 mM CHES pH 9.5 (E2 and C2); and 150 mM NaCl, 50 mM CAPS pH 10.0 (C1).

Soli C2 = type: biochemical, Solenopsis invicta
Description: as §1

Soli E1 = type: biochemical, Solenopsis invicta
Description: as §1

Soli E2 = type: biochemical, Solenopsis invicta
Description: as §1

T1 sequence (Q7SIG2 whole entry): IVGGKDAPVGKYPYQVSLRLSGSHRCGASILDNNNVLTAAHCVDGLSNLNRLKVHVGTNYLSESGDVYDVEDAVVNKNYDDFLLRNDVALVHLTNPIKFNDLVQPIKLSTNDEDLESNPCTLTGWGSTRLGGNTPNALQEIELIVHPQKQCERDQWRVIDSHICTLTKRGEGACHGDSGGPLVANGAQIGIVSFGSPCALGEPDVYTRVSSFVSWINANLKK

| Molecule | IC50 (Soli C1) | IC50 (Soli C2) | IC50 (Soli E1) | IC50 (Soli E2) | IC50 Soli C1 (Soli C1) | IC50 Soli C2 (Soli C2) |
| --- | --- | --- | --- | --- | --- | --- |
| B1 | 37 nM | 1.41 nM | 4.22 nM | 5.58 nM | – | – |
| B2 | – | – | – | – | active | active |
| B3 | 1.24 nM | 0.442 nM | 3.93 nM | 1.89 nM | – | – |
